Values quoted from earlier work as cited in article PMC4569521.

Legend:
[1] = biological target: MuA recognition peptides (Escherichia phage Mu) (UniProt P07636)
[2] = biological target: MuA tetramer (Escherichia phage Mu) (UniProt P07636)
Chain of MuA tetramer (Escherichia phage Mu) (P07636 whole entry): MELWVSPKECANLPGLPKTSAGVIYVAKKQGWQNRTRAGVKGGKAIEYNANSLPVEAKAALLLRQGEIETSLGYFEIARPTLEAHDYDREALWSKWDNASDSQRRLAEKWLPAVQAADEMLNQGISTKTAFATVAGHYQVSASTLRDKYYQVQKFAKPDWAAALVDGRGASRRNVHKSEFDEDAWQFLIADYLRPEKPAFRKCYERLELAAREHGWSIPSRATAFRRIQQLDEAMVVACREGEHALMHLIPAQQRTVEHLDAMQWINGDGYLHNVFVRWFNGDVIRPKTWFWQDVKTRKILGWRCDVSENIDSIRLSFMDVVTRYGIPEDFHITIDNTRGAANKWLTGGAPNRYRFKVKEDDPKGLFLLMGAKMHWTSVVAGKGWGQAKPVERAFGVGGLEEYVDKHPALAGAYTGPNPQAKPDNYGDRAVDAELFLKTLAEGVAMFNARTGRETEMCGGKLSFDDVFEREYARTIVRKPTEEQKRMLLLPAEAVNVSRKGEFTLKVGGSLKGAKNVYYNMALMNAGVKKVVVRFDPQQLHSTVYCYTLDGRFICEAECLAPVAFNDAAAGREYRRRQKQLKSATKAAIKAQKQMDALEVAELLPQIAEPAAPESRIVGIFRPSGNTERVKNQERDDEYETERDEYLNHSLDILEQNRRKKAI

Chain of ClpX (P0A6H1 2-424): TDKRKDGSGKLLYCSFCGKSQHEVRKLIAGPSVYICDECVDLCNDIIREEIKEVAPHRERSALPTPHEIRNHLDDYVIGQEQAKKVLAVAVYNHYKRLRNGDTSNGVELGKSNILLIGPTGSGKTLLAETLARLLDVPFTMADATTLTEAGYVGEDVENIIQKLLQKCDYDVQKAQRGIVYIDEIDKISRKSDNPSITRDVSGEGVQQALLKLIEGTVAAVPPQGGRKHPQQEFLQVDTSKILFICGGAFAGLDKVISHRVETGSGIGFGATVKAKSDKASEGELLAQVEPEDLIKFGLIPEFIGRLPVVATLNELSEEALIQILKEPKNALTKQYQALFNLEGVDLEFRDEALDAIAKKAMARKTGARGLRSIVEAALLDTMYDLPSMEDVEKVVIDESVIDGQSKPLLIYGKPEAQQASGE
Chain of MuA recognition peptides (Escherichia phage Mu) (P07636 whole entry, looked up): as the sequence (P07636 whole entry) above

Substance: ClpX (from UniProt P0A6H1)
- Kd [1]: > 70000 nM
- Kd [2]: 1000 nM
